Source: patent US20240148878A1, “THERAPEUTIC POLY-ADP-RIBOSE POLYMER-GCSF CONJUGATES” (UNIVERSITY OF SOUTHERN CALIFORNIA, priority 2022, published 2024)

T1: GCSF receptor on mouse NFS-60 cells (mouse (NFS-60 cells)) (UniProt P40223)
T1 sequence (looked up): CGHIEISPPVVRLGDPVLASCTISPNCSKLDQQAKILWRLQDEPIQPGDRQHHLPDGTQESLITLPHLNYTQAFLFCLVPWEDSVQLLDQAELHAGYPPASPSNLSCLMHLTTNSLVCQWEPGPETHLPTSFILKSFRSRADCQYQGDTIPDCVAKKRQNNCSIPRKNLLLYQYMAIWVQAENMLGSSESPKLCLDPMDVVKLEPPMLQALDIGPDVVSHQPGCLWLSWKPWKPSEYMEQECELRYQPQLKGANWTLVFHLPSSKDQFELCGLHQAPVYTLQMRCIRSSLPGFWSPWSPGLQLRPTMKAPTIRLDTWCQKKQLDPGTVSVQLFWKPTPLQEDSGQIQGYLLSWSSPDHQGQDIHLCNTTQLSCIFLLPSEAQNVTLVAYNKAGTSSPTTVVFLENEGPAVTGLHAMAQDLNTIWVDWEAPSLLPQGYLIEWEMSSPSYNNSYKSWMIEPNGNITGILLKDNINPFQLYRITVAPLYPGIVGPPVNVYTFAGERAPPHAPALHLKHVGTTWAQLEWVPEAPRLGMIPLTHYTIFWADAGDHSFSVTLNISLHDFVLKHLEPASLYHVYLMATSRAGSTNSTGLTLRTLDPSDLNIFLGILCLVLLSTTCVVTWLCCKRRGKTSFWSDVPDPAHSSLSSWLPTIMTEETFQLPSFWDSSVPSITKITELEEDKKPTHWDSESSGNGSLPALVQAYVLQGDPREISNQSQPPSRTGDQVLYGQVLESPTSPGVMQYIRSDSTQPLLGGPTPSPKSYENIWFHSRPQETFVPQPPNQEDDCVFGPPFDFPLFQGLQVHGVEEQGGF


Experiments:
[1] = molecular target: anti-GCSF monoclonal antibody (clone: BVD13-3A5, BioLegend); experiment: sandwich ELISA, BVD13-3A5 coated, detection anti-GCSF 3D1-HRP; analyte 250 ng/mL, replicate #2
[2] = molecular target: anti-GCSF monoclonal antibody (clone: BVD13-3A5, BioLegend); experiment: sandwich ELISA, BVD13-3A5 coated, detection anti-GCSF 3D1-HRP; analyte 62.5 ng/mL, replicate #1
[3] = molecular target: anti-GCSF monoclonal antibody (clone: BVD13-3A5, BioLegend); experiment: sandwich ELISA, BVD13-3A5 coated, detection anti-GCSF 3D1-HRP; analyte 125 ng/mL, replicate #2
[4] = molecular target: anti-GCSF monoclonal antibody (clone: BVD13-3A5, BioLegend); experiment: sandwich ELISA, BVD13-3A5 coated, detection anti-GCSF 3D1-HRP; analyte 500 ng/mL, replicate #2
[5] = molecular target: anti-GCSF monoclonal antibody (clone: BVD13-3A5, BioLegend); experiment: sandwich ELISA, BVD13-3A5 coated, detection anti-GCSF 3D1-HRP; analyte 31.25 ng/mL, replicate #2
[6] = molecular target: anti-GCSF monoclonal antibody (clone: BVD13-3A5, BioLegend); experiment: sandwich ELISA, BVD13-3A5 coated, detection anti-GCSF 3D1-HRP; analyte 31.25 ng/mL, replicate #1
[7] = molecular target: anti-GCSF monoclonal antibody (clone: BVD13-3A5, BioLegend); experiment: sandwich ELISA, BVD13-3A5 coated, detection anti-GCSF 3D1-HRP; analyte 500 ng/mL, replicate #1
[8] = molecular target: anti-GCSF monoclonal antibody (clone: BVD13-3A5, BioLegend); experiment: sandwich ELISA, BVD13-3A5 coated, detection anti-GCSF 3D1-HRP; analyte 62.5 ng/mL, replicate #2
[9] = molecular target: anti-GCSF monoclonal antibody (clone: BVD13-3A5, BioLegend); experiment: sandwich ELISA, BVD13-3A5 coated, detection anti-GCSF 3D1-HRP; analyte 125 ng/mL, replicate #1
[10] = molecular target: anti-GCSF monoclonal antibody (clone: BVD13-3A5, BioLegend); experiment: sandwich ELISA, BVD13-3A5 coated, detection anti-GCSF 3D1-HRP; analyte 250 ng/mL, replicate #1
[11] = molecular target: T1, GCSF receptor on mouse NFS-60 cells (mouse (NFS-60 cells)); experiment: cell-based or functional assay
mouse NFS-60 cells = experiment: In vitro proliferation assay (MTT); format: cell-based; settings: for EC50: NFS-60 cells, 72 hours, MTT, read-out: EC50 of stimulatory (proliferative) activity
Procedure: FIG. 3 illustrates the PARylated PARP1-GCSF conjugate stimulates proliferation of mouse NFS-60 cells in a dose-dependent manner. Cells were treated with various concentrations of PARylated PARP1, PARylated PARP1-GCSF conjugate, and human GCSF for 72 hours. Cell viabilities were quantified using MTT assays.
Cell lines. Mouse NFS-60 cells were grown in RPMI 1640 medium containing 10% FBS, 0.05 mM 2-mercaptoethanol and 62 ng/mL human recombinant macrophage colony stimulating factor (M-CSF). Expi293F cells were purchased from Thermo Fisher Scientific and cultured in Expi293F expression medium with shaking at a speed of 125 rpm at 37° C. and 8% CO2.
In vitro proliferation assays. Mouse NFS-60 cells were cultured in RPMI 1640 medium containing 10% FBS, 0.05 mM 2-mercapoethanol and 62 ng/ml human recombinant M-CSF. To examine the proliferative activity of PARylated PARP1-GCSF conjugate, cells were washed three times with DPBS buffer, resuspended in RPMI-1640 medium with 10% FBS and 0.05 mM 2-mercapoethanol, plated in 96-well plates (1.5×10^4 cells per well) with various concentrations of GCSF, PARylated PARP1, or PARylated PARP1-hG-CSF conjugate, and incubated for 72 hours at 37° C. with 5% CO2. Cells were then treated with 0.5 mg mL^−1 3-(4,5-dimethylthiazol-2-yl)-2,5-diphenyltetrazolium bromide (MTT) solution for 3 hours at 37° C., followed by additions of 100 μL of lysis buffer (20% SDS in 50% dimethylformamide, 0.5% (v:v) 80% acetic acid, 0.4% (v:v) 1 N HCl, pH 4.7) and incubated for 4 hours at 37° C. Fluorescence intensity measured at 595 nm is proportional to cell viability.

[12] = test system: neutrophil populations in blood; experiment: In vivo efficacy: neutrophil populations in blood by flow cytometry after single s.c. dose; set-up: species or system CD1 mice; settings: for neutrophil percentage reached after sharp increase: within 24 hours, from approximately 10%
Source text: FIG. 4A-C illustrates in vivo efficacy of the PARylated PARP1-GCSF conjugate. Single doses of GCSF (1.25 nmol), PARylated PARP1 (2.5 nmol) and PARylated PARP1-GCSF conjugate (0.5 or 2.5 nmol) were administrated by subcutaneous (s.c.) injections into CD1 mice (five per group). Blood was collected and analyzed for neutrophil populations by flow cytometry using fluorophore-labeled anti-mouse CD45, anti-mouse CD11b, and anti-mouse Ly-6G antibodies. (A)-(B) Neutrophil percentages in mouse blood after the single-dose treatments. For (B), 1=PBS; 2=GCSF 1.25 nmol; 3=PARylated PARP1 2.5 nmol; 4=PARylated PARP1-GCSF 0.5 nmol; 5=PARylated PARP1-GCSF 2.5 nmol. (C) Representative flow cytometric analyses of mouse neutrophil populations after treatments with 1) PBS; 2) GCSF 1.25 nmol; 3) PARylated PARP1 2.5 nmol; 4) PARylated PARP1-GCSF 0.5 nmol; and 5) PARylated PARP1-GCSF 2.5 nmol conjugate. ns=not significant, p>0.05; *, p<0.05; **, p<0.01; ***, p<0.001; ****, p<0.0001. Data for the 5 conjugates are listed for days 0, 1, 5, and 11.
Animals. Female CD-1 IGS mice (22-24 g) were purchased from Charles River Laboratories (Wilmington, MA). All animal studies were performed under a protocol approved by the Institutional Animal Care and Use Committee of the University of Southern California.
In vivo efficacy of the PARylated PARP1-GCSF conjugate. Single doses of GCSF (1.25 nmol), PARylated PARP1 (2.5 nmol), or PARylated PARP1-GCSF conjugate (0.5 or 2.5 nmol) were administrated by subcutaneous (s.c.) injections into CD1 mice (5 per group). Blood was collected at day 0 through day 13 and analyzed by flow cytometry to measure percentages of neutrophil populations in white blood cells using pacific blue anti-mouse CD45 (clone: 30-F11, BioLegend), APC anti-mouse CD11b (clone: M1/70, eBioscence, Carlsbad, CA), and FITC anti-mouse Ly-6G antibodies (clone: 1A8, BioLegend).

Molecule | Fluorescence Intensity [1] | Fluorescence Intensity [2] | Fluorescence Intensity [3] | Fluorescence Intensity [4] | Fluorescence Intensity [5] | Fluorescence Intensity [6] | Fluorescence Intensity [7] | Fluorescence Intensity [8] | Fluorescence Intensity [9] | Fluorescence Intensity [10] | EC50, proliferation of mouse NFS-60 cells (MTT, 72 hours) [11] [nM] | fold potency against free GCSF, proliferation of mouse NFS-60 cells [11] [fold] | EC50 (mouse NFS-60 cells) [nM] | fold increased potency versus recombinant human GCSF (mouse NFS-60 cells; ratio of EC50, NFS-60 cells) | duration of sustained elevated levels of neutrophil ([12]; conjugate 2.5 nmol) [days] | neutrophil-stimulating activity compared with 1.25 nmol GCSF ([12]; conjugate at a dose of 0.5 nmol) | neutrophil percentage reached after sharp increase [12] [%]
PARylated PARP1-GCSF conjugate (from UniProt P09874 1-1014) | 49200 | 22800 | 44700 | 64900 | 15900 | 15900 | 64500 | 20700 | 32100 | 49400 | 0.00602 | 4 |  |  |  |  | 
PARylated PARP1-GCSF conjugate: Auto-PARylated human PARP1 (3′-azido NAD+-derived PAR polymers) click-conjugated with alkyne-functionalized human GCSF, 14.0±0.5 GCSF molecules on average |  |  |  |  |  |  |  |  |  |  |  |  | 0.00602 ± 0.00093 | approximately 4 fold | 11 | comparable | ~50
Recombinant human granulocyte colony-stimulating factor (GCSF) with His6 tag, expressed in Expi293F cells (from UniProt P09919 31-207) (ligand) | 60700 | 29400 | 42700 | 76500 | 20700 | 19900 | 75700 | 29800 | 42300 | 62200 | 0.0248 |  |  |  |  |  | 
GCSF: Recombinant human granulocyte colony-stimulating factor (His6) expressed in Expi293F cells (protein) TPLGPASSLPQSFLLKCLEQVRKIQGDGAALQEKLVSECATYKLCHPEELVLLGHSLGIPWAPLSSCPSQALQLAGCLSQLHSGLFLYQGLLQALEGISPELGPTLDTLQLDVADFATTIWQQMEELGMAPALQPTQGAMPAFASAFQRRAGGVLVASHLQSFLEVSYRVLRHLAQPHHHHHH |  |  |  |  |  |  |  |  |  |  |  |  | 0.0248 ± 0.00321 |  |  |  | ~50
